In the Human Domainome abundance scans (Beltran et al. 2025) one finds abundance fitness data, which are given here for 40 variants.

± gives the uncertainty stated by the source.

Sequences and labels used below:
B1: TOX high mobility group box family member 3, residues 256 to 323; numbered along this chain, O15405 (parent)
chain: QKPVSAYALFFRDTQAAIKGQNPNATFGEVSKIVASMWDSLGEEQKQVYKRKTEAAKKEYLKALAAYR

This series covers variants of B1. Put plainly: abundance fitness (aPCA) (normalised: wild type 0, dead -1); higher = more abundant; growth selection in yeast, the domain comes from the species named. The following applies: Homo sapiens.
On to QKPVSAYTLFFRDTQAAIKGQNPNATFGEVSKIVASMWDSLGEEQKQVYKRKTEAAKKEYLKALAAYR, for which the abundance fitness was -0.196 ± 0.11.
As for QKPVSAYILFFRDTQAAIKGQNPNATFGEVSKIVASMWDSLGEEQKQVYKRKTEAAKKEYLKALAAYR, the figure is -0.477 ± 0.19; as for QKPVSAYVLFFRDTQAAIKGQNPNATFGEVSKIVASMWDSLGEEQKQVYKRKTEAAKKEYLKALAAYR, -0.123 ± 0.056; as for QKPVSAYHLFFRDTQAAIKGQNPNATFGEVSKIVASMWDSLGEEQKQVYKRKTEAAKKEYLKALAAYR, 0.136 ± 0.17.
As for QKPVSAYYLFFRDTQAAIKGQNPNATFGEVSKIVASMWDSLGEEQKQVYKRKTEAAKKEYLKALAAYR, the figure is -0.458 ± 0.24.
The result for QKPVSAYRLFFRDTQAAIKGQNPNATFGEVSKIVASMWDSLGEEQKQVYKRKTEAAKKEYLKALAAYR reads -0.027 ± 0.044; that for QKPVSAYWLFFRDTQAAIKGQNPNATFGEVSKIVASMWDSLGEEQKQVYKRKTEAAKKEYLKALAAYR, -0.252 ± 0.098; that for QKPVSAYKLFFRDTQAAIKGQNPNATFGEVSKIVASMWDSLGEEQKQVYKRKTEAAKKEYLKALAAYR, 0.009 ± 0.074.
As to QKPVSAYGLFFRDTQAAIKGQNPNATFGEVSKIVASMWDSLGEEQKQVYKRKTEAAKKEYLKALAAYR, the abundance fitness was -0.179 ± 0.17.
As for QKPVSAYLLFFRDTQAAIKGQNPNATFGEVSKIVASMWDSLGEEQKQVYKRKTEAAKKEYLKALAAYR, the figure is -0.235 ± 0.065; as for QKPVSAYFLFFRDTQAAIKGQNPNATFGEVSKIVASMWDSLGEEQKQVYKRKTEAAKKEYLKALAAYR, -0.33 ± 0.18; as for QKPVSAYMLFFRDTQAAIKGQNPNATFGEVSKIVASMWDSLGEEQKQVYKRKTEAAKKEYLKALAAYR, 0.219 ± 0.056.
As for QKPVSAYSLFFRDTQAAIKGQNPNATFGEVSKIVASMWDSLGEEQKQVYKRKTEAAKKEYLKALAAYR, the figure is 0.002 ± 0.065; as for QKPVSAYPLFFRDTQAAIKGQNPNATFGEVSKIVASMWDSLGEEQKQVYKRKTEAAKKEYLKALAAYR, -0.464 ± 0.12; as for QKPVSAYQLFFRDTQAAIKGQNPNATFGEVSKIVASMWDSLGEEQKQVYKRKTEAAKKEYLKALAAYR, 0.09 ± 0.081.
The result for QKPVSAYAFFFRDTQAAIKGQNPNATFGEVSKIVASMWDSLGEEQKQVYKRKTEAAKKEYLKALAAYR reads -0.31 ± 0.11.
Consider QKPVSAYAPFFRDTQAAIKGQNPNATFGEVSKIVASMWDSLGEEQKQVYKRKTEAAKKEYLKALAAYR, for which the abundance fitness is -1.08 ± 0.39.
As for QKPVSAYAAFFRDTQAAIKGQNPNATFGEVSKIVASMWDSLGEEQKQVYKRKTEAAKKEYLKALAAYR, the figure is -0.042 ± 0.064; as for QKPVSAYAWFFRDTQAAIKGQNPNATFGEVSKIVASMWDSLGEEQKQVYKRKTEAAKKEYLKALAAYR, -0.218 ± 0.11; as for QKPVSAYAKFFRDTQAAIKGQNPNATFGEVSKIVASMWDSLGEEQKQVYKRKTEAAKKEYLKALAAYR, -0.425 ± 0.13.
As for QKPVSAYATFFRDTQAAIKGQNPNATFGEVSKIVASMWDSLGEEQKQVYKRKTEAAKKEYLKALAAYR, the figure is -0.039 ± 0.084; as for QKPVSAYAHFFRDTQAAIKGQNPNATFGEVSKIVASMWDSLGEEQKQVYKRKTEAAKKEYLKALAAYR, -0.394 ± 0.19; as for QKPVSAYANFFRDTQAAIKGQNPNATFGEVSKIVASMWDSLGEEQKQVYKRKTEAAKKEYLKALAAYR, -0.705 ± 0.41.
As to QKPVSAYAMFFRDTQAAIKGQNPNATFGEVSKIVASMWDSLGEEQKQVYKRKTEAAKKEYLKALAAYR, the abundance fitness was -0.035 ± 0.081.
The result for QKPVSAYAEFFRDTQAAIKGQNPNATFGEVSKIVASMWDSLGEEQKQVYKRKTEAAKKEYLKALAAYR reads 0.262 ± 0.16.
As for QKPVSAYAGFFRDTQAAIKGQNPNATFGEVSKIVASMWDSLGEEQKQVYKRKTEAAKKEYLKALAAYR, the figure is -0.303 ± 0.083.
The result for QKPVSAYASFFRDTQAAIKGQNPNATFGEVSKIVASMWDSLGEEQKQVYKRKTEAAKKEYLKALAAYR reads 0.077 ± 0.091.
Consider QKPVSAYAQFFRDTQAAIKGQNPNATFGEVSKIVASMWDSLGEEQKQVYKRKTEAAKKEYLKALAAYR, for which the abundance fitness came to 0.053 ± 0.073.
The result for QKPVSAYADFFRDTQAAIKGQNPNATFGEVSKIVASMWDSLGEEQKQVYKRKTEAAKKEYLKALAAYR reads -0.217 ± 0.29.
Regarding QKPVSAYAVFFRDTQAAIKGQNPNATFGEVSKIVASMWDSLGEEQKQVYKRKTEAAKKEYLKALAAYR, the abundance fitness is -0.224 ± 0.077.
The result for QKPVSAYAIFFRDTQAAIKGQNPNATFGEVSKIVASMWDSLGEEQKQVYKRKTEAAKKEYLKALAAYR reads 0.233 ± 0.13; that for QKPVSAYARFFRDTQAAIKGQNPNATFGEVSKIVASMWDSLGEEQKQVYKRKTEAAKKEYLKALAAYR, -0.498 ± 0.1; that for QKPVSAYACFFRDTQAAIKGQNPNATFGEVSKIVASMWDSLGEEQKQVYKRKTEAAKKEYLKALAAYR, -0.106 ± 0.1.
The result for QKPVSAYALKFRDTQAAIKGQNPNATFGEVSKIVASMWDSLGEEQKQVYKRKTEAAKKEYLKALAAYR reads -0.946 ± 0.17; that for QKPVSAYALEFRDTQAAIKGQNPNATFGEVSKIVASMWDSLGEEQKQVYKRKTEAAKKEYLKALAAYR, -0.635 ± 0.12; that for QKPVSAYALGFRDTQAAIKGQNPNATFGEVSKIVASMWDSLGEEQKQVYKRKTEAAKKEYLKALAAYR, -0.957 ± 0.14.
As for QKPVSAYALLFRDTQAAIKGQNPNATFGEVSKIVASMWDSLGEEQKQVYKRKTEAAKKEYLKALAAYR, the figure is -0.744 ± 0.1.
In the case of QKPVSAYALDFRDTQAAIKGQNPNATFGEVSKIVASMWDSLGEEQKQVYKRKTEAAKKEYLKALAAYR, the abundance fitness was -0.752 ± 0.23.
The result for QKPVSAYALAFRDTQAAIKGQNPNATFGEVSKIVASMWDSLGEEQKQVYKRKTEAAKKEYLKALAAYR reads -0.981 ± 0.31; that for QKPVSAYALIFRDTQAAIKGQNPNATFGEVSKIVASMWDSLGEEQKQVYKRKTEAAKKEYLKALAAYR, -0.98 ± 0.34.
